Assay results as given in patent US20160185871A1 (UNIVERSITY OF TOKYO, published 2016).

T1: mouse TLR9 (mouse, UniProt Q9EQU3 26-1032)
T1 construct: Stands for three settings: mouse TLR9 expressed in Ba/F3 cells (Ba/F3_mTLR9), alone or with Unc93B1, and endogenous TLR9 of spleen DC; also called mTLR9; endogenous TLR9
T1 sequence: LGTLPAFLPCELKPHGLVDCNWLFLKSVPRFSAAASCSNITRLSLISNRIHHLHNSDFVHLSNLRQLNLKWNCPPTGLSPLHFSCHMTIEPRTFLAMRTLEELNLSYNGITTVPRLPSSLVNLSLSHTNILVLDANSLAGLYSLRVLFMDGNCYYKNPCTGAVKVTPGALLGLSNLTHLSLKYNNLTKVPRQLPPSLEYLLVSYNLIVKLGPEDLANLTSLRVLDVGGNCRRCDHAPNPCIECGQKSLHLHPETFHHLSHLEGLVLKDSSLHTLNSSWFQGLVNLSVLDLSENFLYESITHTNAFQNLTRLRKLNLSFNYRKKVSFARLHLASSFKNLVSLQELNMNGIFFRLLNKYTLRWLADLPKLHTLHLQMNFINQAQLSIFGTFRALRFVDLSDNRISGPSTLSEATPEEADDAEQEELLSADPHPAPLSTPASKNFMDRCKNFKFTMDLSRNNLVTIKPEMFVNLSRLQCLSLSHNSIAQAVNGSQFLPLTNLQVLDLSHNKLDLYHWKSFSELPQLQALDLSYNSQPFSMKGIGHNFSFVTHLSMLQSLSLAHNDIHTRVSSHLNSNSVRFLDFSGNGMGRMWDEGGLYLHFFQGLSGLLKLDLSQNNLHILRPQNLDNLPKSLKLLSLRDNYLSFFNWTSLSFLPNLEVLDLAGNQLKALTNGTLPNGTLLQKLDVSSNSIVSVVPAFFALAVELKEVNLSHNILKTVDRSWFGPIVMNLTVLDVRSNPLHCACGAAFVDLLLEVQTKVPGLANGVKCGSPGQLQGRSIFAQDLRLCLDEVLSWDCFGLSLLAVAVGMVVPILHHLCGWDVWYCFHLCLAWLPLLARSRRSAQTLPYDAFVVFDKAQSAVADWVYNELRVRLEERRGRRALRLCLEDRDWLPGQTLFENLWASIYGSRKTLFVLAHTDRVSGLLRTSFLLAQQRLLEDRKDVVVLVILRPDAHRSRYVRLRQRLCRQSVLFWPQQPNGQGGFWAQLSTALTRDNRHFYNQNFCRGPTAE

T2: human TLR9 having Flag-His6 added on the C-terminal side (human, UniProt Q9NR96 26-1032)
T2 construct: whole, on cells; Expressed in Ba/F3 cells and stained after membrane permeabilisation; not shown: C-terminal Flag-His6 tag
T2 sequence (looked up): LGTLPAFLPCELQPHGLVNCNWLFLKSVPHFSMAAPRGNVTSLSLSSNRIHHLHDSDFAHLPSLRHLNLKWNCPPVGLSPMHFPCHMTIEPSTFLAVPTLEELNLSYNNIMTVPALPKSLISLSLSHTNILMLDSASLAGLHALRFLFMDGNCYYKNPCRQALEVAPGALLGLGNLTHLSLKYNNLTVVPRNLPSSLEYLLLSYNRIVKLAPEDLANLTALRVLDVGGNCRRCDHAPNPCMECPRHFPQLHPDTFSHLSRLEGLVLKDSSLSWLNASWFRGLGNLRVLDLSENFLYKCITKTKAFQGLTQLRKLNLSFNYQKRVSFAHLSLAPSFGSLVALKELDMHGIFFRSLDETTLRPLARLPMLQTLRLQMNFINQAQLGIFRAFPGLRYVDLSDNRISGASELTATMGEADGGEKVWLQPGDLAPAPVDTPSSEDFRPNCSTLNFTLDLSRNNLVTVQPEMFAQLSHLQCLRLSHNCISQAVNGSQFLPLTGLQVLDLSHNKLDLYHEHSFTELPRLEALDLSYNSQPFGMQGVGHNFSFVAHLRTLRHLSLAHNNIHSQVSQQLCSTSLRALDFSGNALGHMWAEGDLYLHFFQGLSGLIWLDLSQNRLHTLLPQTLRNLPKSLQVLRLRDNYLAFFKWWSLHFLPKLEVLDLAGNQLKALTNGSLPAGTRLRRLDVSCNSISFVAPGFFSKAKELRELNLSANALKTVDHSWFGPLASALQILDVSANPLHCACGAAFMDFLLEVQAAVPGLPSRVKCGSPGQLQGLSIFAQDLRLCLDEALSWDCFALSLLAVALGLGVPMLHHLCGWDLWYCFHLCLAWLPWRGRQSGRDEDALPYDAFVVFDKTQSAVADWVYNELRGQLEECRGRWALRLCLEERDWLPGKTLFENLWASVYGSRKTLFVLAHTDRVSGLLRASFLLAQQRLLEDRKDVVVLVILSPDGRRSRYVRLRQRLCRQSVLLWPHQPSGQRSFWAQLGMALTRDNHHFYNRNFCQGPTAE

T3: mouse TLR9 having Flag-His6 added on the C-terminal side (mouse, UniProt Q9EQU3 26-1032)
T3 construct: Expressed in Ba/F3 cells and stained after membrane permeabilisation; not shown: C-terminal Flag-His6 tag
T3 sequence: T1 sequence

T4: C terminal region TLR7 (TLR7C; from 461-st glutamic acid to 837-th aspartic acid) (mouse, UniProt P58681 461-837)
T4 construct: not shown: N-terminal HA antigen added by the pDisplay vector; Cell-surface display (membrane anchor) part of the pDisplay vector; not described
T4 sequence: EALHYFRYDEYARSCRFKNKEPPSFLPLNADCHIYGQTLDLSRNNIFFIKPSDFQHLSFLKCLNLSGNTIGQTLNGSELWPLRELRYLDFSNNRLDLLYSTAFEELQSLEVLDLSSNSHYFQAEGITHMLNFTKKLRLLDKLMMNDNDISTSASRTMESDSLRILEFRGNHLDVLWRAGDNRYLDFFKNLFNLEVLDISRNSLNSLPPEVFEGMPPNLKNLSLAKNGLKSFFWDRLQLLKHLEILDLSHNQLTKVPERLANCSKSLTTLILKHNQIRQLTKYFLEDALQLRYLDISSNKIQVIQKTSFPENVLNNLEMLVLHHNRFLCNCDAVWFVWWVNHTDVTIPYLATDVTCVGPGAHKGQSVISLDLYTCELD

T5: TLR7N27-312 (mouse, UniProt P58681 27-312)
T5 construct: Expressed in a cell line; also called fragment of TLR7 from position 27 to position 312
T5 sequence: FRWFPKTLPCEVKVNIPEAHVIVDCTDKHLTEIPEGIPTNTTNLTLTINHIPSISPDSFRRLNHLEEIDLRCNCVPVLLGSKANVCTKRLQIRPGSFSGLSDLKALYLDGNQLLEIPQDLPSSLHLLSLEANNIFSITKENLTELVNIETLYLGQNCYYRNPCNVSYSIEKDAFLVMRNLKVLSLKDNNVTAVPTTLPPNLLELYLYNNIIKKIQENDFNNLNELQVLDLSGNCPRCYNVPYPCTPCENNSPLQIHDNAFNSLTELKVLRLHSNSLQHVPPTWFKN

B1: J15A7 antibody (antibody, mouse IgG1, kappa, V domains shown)
VH: QVQLQQPGAELVMPGASVKMSCKASGYTFTDYWMHWVKQRPGQGLEWIGVIDTSDSYTSYNQKFNRKATLTVDESSSTAYMQLSSLTSEDSAVYYCARDGPYYAMDYWGQGTSVTVSS
VL: QIVLTQSPAIMSASPGEKVTISCSASSGVSYMYWYQQKPGSSPKPWIYRTSNLASGVPARFSGSGSGTSYSLTISSMEAEDAATYYCHQYHSDPRTFGGGTKLEIKR
notes: Mouse monoclonal antibody from a hybridoma, IgG1/kappa; also called anti-TLR9 monoclonal antibody J15A7
B2: B33A4 antibody (antibody, V domains shown)
VH: EVLLQQSGPELVKPGASVKIPCKASGFTFTDYNLDWVKQSHEKSLEWIGDINPNTGGTIYNQNFKGKATLTVDRSSGTAYMELRSLTSEDTAVYFCARYFVSNYGYFDVWGAGTTVTVSS
VL: SIVMTQTPKFLLVSAGDRVTITCKASQSVSYDVAWYQQKPGQSPKLLIYYASNLYTGVPDRFTGSGYGTDFTFTISTVQAEDLAVYFCQQDSSSPYTFGGGTKLEIKR
notes: Mouse monoclonal antibody from a hybridoma, IgG2a/kappa; also called anti-TLR9N
B3: A94B10 antibody (antibody, V domains shown)
VH: EVKLVESGGGLVQPGGSLRLSCTTSGFTFSDFYMEWVRQPPGKRLEWIAASRNKRNDHTTEYSASVKGRFIVSRDTSQNILYLQMNALRAEDTAIYYCARDADYYGSSTWYFDVWGAGTTVTVSS
VL: DIVMTQSHKFMSTSVGDRVSITCKASQDVRTAVAWYQQKPGQSPKLLIYWASTRHTGVPDRFTGSGSGTDYTLTISSVQAEDLALYYCQQHYNTPPTFGGGTKLEIKR
notes: Mouse monoclonal antibody from a hybridoma, isotype IgG1; Chains were determined from full-length cDNA (5'-RACE); also called anti-mouse TLR7 antibody A94B10; anti-TLR7 monoclonal antibody
B4: C34A1 antibody (antibody, mouse IgG2a, kappa, V domains shown)
VH: EVQLVESGGDLVKPGGSLKLSCAASGFTFSSYAMSWVRQTPDNRLEWVATSSSVGSYAYYPDNVKGRFTISRDNAKNTLYLQMSSLKSEDTAMYYCARRDYDARYWYFDVWGAGTTVTVSS
VL: DIKMTQSPSSMYASLGERVTITCKASQDIKSYLSWYQLKPWKSPKTLIYYATTLADGVPSRFSGSGSGQDYSLTISSLESDDTATYYCLQHGESPYTFGGGTKLEIKR
notes: Mouse monoclonal antibody from a hybridoma, IgG2a/kappa

Tests used:
mouse TLR9 = target: T1, mouse TLR9; assay: flow cytometry on Ba/F3_mTLR9 cells, hybridoma selection
Text: In order to establish a monoclonal antibody (mAb) against mouse TLR9, BALB/c TLR9^{-/-} mice were immunized with Ba/F3 cells(Ba/F3_mTLR9) that expressed mouse TLR9. Four days after final immunization, the spleen cells were fused with the SP2/0 myeloma cells. Hybridomas producing anti-mouse TLR9 mAb were selected by flow cytometry based on the staining of the Ba/F3 cells used for immunization. Three monoclonal antibodies J15A7 (IgG1/κ), C34A1 (IgG2a/κ), and B33A4 (IgG2a/κ) were established.

[1] = target: T2, human TLR9 having Flag-His6 added on …; assay: membrane permeability staining of Ba/F3 cells, flow cytometry
[2] = target: T3, mouse TLR9 having Flag-His6 added on …; assay: as above
[3] = target: T4, C terminal region TLR7 (TLR7C; from …); assay: flow cytometry on cells displaying the fragment
TLR7N27-312 = target: T5, TLR7N27-312; assay: flow cytometry on a cell line expressing the fragment

| Binder | binding result (mouse TLR9) | binding result [1] | binding result [2] | binding result [3] | binding result (TLR7N27-312) |
| --- | --- | --- | --- | --- | --- |
| B1 | binds | no binding | binds | – | – |
| B2 | – | no binding | – | – | – |
| B3 | – | – | – | no binding | no binding |
| B4 | binds | no binding | binds | – | – |
